In patent US20210188980A1:
Positions count from the first letter of the chain named. Each block holds one binder with its values, some of them ahead of it.

Biological target: cynomolgus LAG-3 ECD/Fc fusion protein (cynomolgus monkey)
Assay: ELISA, coated cynoLAG-3 ECD/Fc

cynomolgus LAG-3 ECD/Fc fusion protein (cynomolgus monkey), sequence (chain, as listed by the source limits assumed, form in doubt): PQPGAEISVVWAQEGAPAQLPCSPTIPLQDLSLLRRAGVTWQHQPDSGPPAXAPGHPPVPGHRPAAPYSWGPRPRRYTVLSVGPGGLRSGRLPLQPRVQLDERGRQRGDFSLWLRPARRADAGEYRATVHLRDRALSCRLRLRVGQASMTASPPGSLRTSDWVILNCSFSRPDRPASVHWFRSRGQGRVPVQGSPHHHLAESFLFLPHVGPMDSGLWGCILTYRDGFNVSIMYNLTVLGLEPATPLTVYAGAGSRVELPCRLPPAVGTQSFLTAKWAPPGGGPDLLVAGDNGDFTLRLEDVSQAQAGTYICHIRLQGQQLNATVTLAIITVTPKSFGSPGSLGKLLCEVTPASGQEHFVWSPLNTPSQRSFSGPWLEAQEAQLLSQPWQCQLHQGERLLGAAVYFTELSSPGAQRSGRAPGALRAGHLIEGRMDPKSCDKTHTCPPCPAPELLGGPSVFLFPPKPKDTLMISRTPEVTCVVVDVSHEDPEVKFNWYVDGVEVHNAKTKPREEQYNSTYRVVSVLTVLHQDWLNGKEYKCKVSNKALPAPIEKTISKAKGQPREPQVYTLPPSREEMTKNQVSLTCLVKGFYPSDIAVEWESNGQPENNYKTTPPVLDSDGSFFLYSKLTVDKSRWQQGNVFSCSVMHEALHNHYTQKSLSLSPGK

B4: mAb746 (antibody, V domains shown)
VH: EVQLQQSGAELVRPGASVKLSCTASDFNIKDDYMHWVKQRPEQGLDWIGWIVPENGNTEYASKFQGKATITADTSSNTAYLQLSSLTSEDTAVYYCTVYGDYWGQGTTLTVSS
VL: DIQMTQSPSSLSASLGERVSLNCRASQEISGYLSWLQQKSDGTIKRLIYAASTLDSGVPKRFSGSRSGSDYSLTISSLESEDFADYYCLQYASYPLTFGAGTKLELK
EC50: 0.21 nM

B5: mAb747 (antibody, V domains shown)
VH: B4 VH
VL: B4 VL with S40P, D85A
EC50: 0.34 nM

B6: mAb742 (antibody, V domains shown)
VH: QGQLQQSGAELVRPGASVTLSCKASGYTFNDYEMHWVKQTPVHGLEWIGAIDPETGGTAYNQKFKGKAILTADKSSSTAYMELRSLTSEDSAVYYCIRWGSTVFPYWGQGTLVTVS
VL: DGVLTQTPLSLPVNIGDQASISCKSTKSLLNSDGFTYLDWYLQKPGQSPQLLIYLVSNRFSGVPDRFSGSGSGTDFTLKISRVEAEDLGVYYCFQSNYLPWTFGGGTKLEIK
EC50: 0.32 nM

B7: mAb744 (antibody, V domains shown)
VH: B6 VH with G2V, A16T, N30T, V37M, E54A, E82D, L83F, S101T
VL: B6 VL with G2V
EC50: 0.21 nM

More lines, now with the values ahead:

EC50: 0.32 nM
B1: mAb750 (antibody, V domains shown)
VH: EVQLQQSGAELVRPGASVKLSCTPSGLNIKDDYIHWVKQRPEQGLEWIGWIDPENGDTEYASKFQGKATITADTSSNTAYLQLSSLTSEDSAVYYCCTADYRNWYWGQGTTLTVSS
VL: not shown

EC50: 0.33 nM
B2: mAb749 (antibody, V domains shown)
VH: EVQLQQSGAELVRPGASVKVSCTASDFNIKDDYVHWVKQRPEQGLEWIGWIDPENGDTEYASKFQGKATITADTSSNTAYLQLSSLTSEDTAVYFCSTWDAEENYWGQGTTLSVSS
VL: DIVLTQAAPSVPVTPGESVSISCRSSKSLLHSNGNTYLYWFLQRPGQSPQVLIYRMSNLASGVPVRFSGSGSGTAFTLRISRVEAEDVGVYYCMQHLEYPFTFGSGTKLEIK

EC50: 0.25 nM
B3: mAb748 (antibody, V domains shown)
VH: EVQMQQSGAELVRPGASVKLSCTVSGFNIKDDYMHWVKQRPEQGLEWIGWIDPENGDTEYASKFQGKATITADTSSNTAYLQLNSLTSEDTAVYYCTYFDYWGQGTTLTVSS
VL: not shown
